No end group written: not given here.

The target of this test is mucin molecule associated with epithelial tumours (Homo sapiens (Human), UniProt P15941). In words: synthetic CDR peptides of NM-2 VH; method not told at this place.

Take REPPTRTFAYWG (also: I125 label, position not given here) [peptide REPPTRTFAYWG]: the binding result is reported as “binds”.

Values taken from patent US5833943, “Minimum recognition unit of a pem mucin tandem repeat specific monoclonal antibody” (Cancer Therapeutics Limited, dated 1998).
